From doi:10.1101/2025.05.02.651858 come the findings set out here.

The target of this test is ϕC31 integrase^S12A-RDF fusion protein (Streptomyces phage ϕC31) (UniProt Q9T221). The test is described as follows: SEC-MALS.

In turn, “ϕC31 integrase^S12A-RDF fusion protein (from UniProt Q9T221 1-605)” returned a stoichiometry N of 4.
